Reference: patent US20070224186A1
Where no end group is shown, it is not given here.

Target: EG(2)-HepN
Test: competitive ELISA with EG(2)-HepN; competitor N-terminally biotinylated hepcidin-(28-47)

detection limit of the ELISA: 0.1 ng/well
B1: hepcidin-(28-47) (peptide)
peptide: PQQTGQLAELQPQDRAGARA
modifications: not fully specified (C-terminus)
